According to US20110008302A1, “Compositions and methods for immortalizing cells and screening for anti-cancer agents” (priority 2007, published 2011):

System: MEFs
Assay: Stimulation of serum-starved MEFs with growth factors or serum (Ezh2, Ndy1, miR-101 levels)
Format: cell-based, mouse
Details: serum-starved MEFs, 24 hours after stimulation
Method: MEFs were transfected with control siRNA and stimulated with serum (10%) for 1, 4, 12 and 18 hours. (upper) Nuclear extracts were probed with antibody specific for Ezh2 and for CREB, levels of which served as loading control. (lower) Ndy1 and Ezh2 mRNA levels were measured with real time RT-PCR; GAPDH mRNA levels were used as internal control. Data are expressed as mean±SD.
Serum starved MEFs were stimulated with each of FGF-2 (20 ng/ml), IGF-1 (20 ng/ml), PDGF (20 ng/ml), serum (10%), VEGF (20 ng/ml), EGF (20 ng/ml) or TNFα (50 ng/ml). Nuclear extracts were probed with antibody specific for Ezh2 and for CREB, levels of which served as loading control.
Data are expressed as mean±SD.
MEFs transfected with control siRNA were stimulated with FGF-2 for 1, 4, 12 or 18 hours. (upper) Nuclear extracts were probed with antibody specific for Ezh2. CREB levels served as loading control. (middle) Ndy1 and Ezh2 mRNA were measured with real time RT-PCR; GAPDH mRNA levels were used as internal control. Data are expressed as mean±SD. (lower) miR-101 levels were measured with real time RT-PCR; U6 small nuclear RNA levels were used as internal control. Data are expressed as mean±SD. […]

B1: EGF: growth factor, R&D systems (protein, UniProt P01133 23-1207, looked up)
Pro-epidermal growth factor: PQHWSCPEGTLAGNGNSTCVGPAPFLIFSHGNSIFRIDTEGTNYEQLVVDAGVSVIMDFHYNEKRIYWVDLERQLLQRVFLNGSRQERVCNIEKNVSGMAINWINEEVIWSNQQEGIITVTDMKGNNSHILLSALKYPANVAVDPVERFIFWSSEVAGSLYRADLDGVGVKALLETSEKITAVSLDVLDKRLFWIQYNREGSNSLICSCDYDGGSVHISKHPTQHNLFAMSLFGDRIFYSTWKMKTIWIANKHTGKDMVRINLHSSFVPLGELKVVHPLAQPKAEDDTWEPEQKLCKLRKGNCSSTVCGQDLQSHLCMCAEGYALSRDRKYCEDVNECAFWNHGCTLGCKNTPGSYYCTCPVGFVLLPDGKRCHQLVSCPRNVSECSHDCVLTSEGPLCFCPEGSVLERDGKTCSGCSSPDNGGCSQLCVPLSPVSWECDCFPGYDLQLDEKSCAASGPQPFLLFANSQDIRHMHFDGTDYGTLLSQQMGMVYALDHDPVENKIYFAHTALKWIERANMDGSQRERLIEEGVDVPEGLAVDWIGRRFYWTDRGKSLIGRSDLNGKRSKIITKENISQPRGIAVHPMAKRLFWTDTGINPRIESSSLQGLGRLVIASSDLIWPSGITIDFLTDKLYWCDAKQSVIEMANLDGSKRRRLTQNDVGHPFAVAVFEDYVWFSDWAMPSVMRVNKRTGKDRVRLQGSMLKPSSLVVVHPLAKPGADPCLYQNGGCEHICKKRLGTAWCSCREGFMKASDGKTCLALDGHQLLAGGEVDLKNQVTPLDILSKTRVSEDNITESQHMLVAEIMVSDQDDCAPVGCSMYARCISEGEDATCQCLKGFAGDGKLCSDIDECEMGVPVCPPASSKCINTEGGYVCRCSEGYQGDGIHCLDIDECQLGEHSCGENASCTNTEGGYTCMCAGRLSEPGLICPDSTPPPHLREDDHHYSVRNSDSECPLSHDGYCLHDGVCMYIEALDKYACNCVVGYIGERCQYRDLKWWELRHAGHGQQQKVIVVAVCVVVLVMLLLLSLWGAHYYRTQKLLSKNPKNPYEESSRDVRSRRPADTEDGMSSCPQPWFVVIKEHQDLKNGGQPVAGEDGQAADGSMQPTSWRQEPQLCGMGTEQGCWIPVSSDKGSCPQVMERSFHMPSYGTQTLEGGVEKPHSLLSANPLWQQRALDPPHQMELTQ
modifications: Pro-epidermal growth factor
notes: growth factor, R&D systems
level at which Ezh2 expression is induced: at both the RNA and protein levels | Ezh2 expression (20 ng/ml (serum 10%)): significantly upregulated
